Test results taken from US20160113911A1, “METHODS AND COMPOSITIONS FOR THE TREATMENT OF CANCER” (THE GENERAL HOSPITAL CORPORATION, priority 2013, published 2016).

What was measured:
H3K9me3 = experiment: H3K9 demethylase activity of KDM4 variants in transfected cells; assay type: cell-based; parameters: key: + indicates active; − indicates inactive; +/− indicates partial acitivty; conditions: KDM4A mutations
H3K36me3 = experiment: H3K36 demethylase activity of KDM4A variants in transfected cells (immunofluorescence); assay type: cell-based; parameters: key: + indicates active; − indicates inactive; +/− indicates partial acitivty; conditions: KDM4A mutations

| Molecule | H3k9 Demethylase Activity (H3K9me3) | H3k36 Demethylase Activity (H3K36me3) |
| --- | --- | --- |
| 2A-R825C*: KDM4A mutation (protein, UniProt O75164 2-1064, looked up, variant R825C) Lysine-specific demethylase 4A: ASESETLNPSARIMTFYPTMEEFRNFSRYIAYIESQGAHRAGLAKVVPPKEWKPRASYDDIDDLVIPAPIQQLVTGQSGLFTQYNIQKKAMTVREFRKIANSDKYCTPRYSEFEELERKYWKNLTFNPPIYGADVNGTLYEKHVDEWNIGRLRTILDLVEKESGITIEGVNTPYLYFGMWKTSFAWHTEDMDLYSINYLHFGEPKSWYSVPPEHGKRLERLAKGFFPGSAQSCEAFLRHKMTLISPLMLKKYGIPFDKVTQEAGEFMITFPYGYHAGFNHGFNCAESTNFATRRWIEYGKQAVLCSCRKDMVKISMDVFVRKFQPERYKLWKAGKDNTVIDHTLPTPEAAEFLKESELPPRAGNEEECPEEDMEGVEDGEEGDLKTSLAKHRIGTKRHRVCLEIPQEVSQSELFPKEDLSSEQYEMTECPAALAPVRPTHSSVRQVEDGLTFPDYSDSTEVKFEELKNVKLEEEDEEEEQAAAALDLSVNPASVGGRLVFSGSKKKSSSSLGSGSSRDSISSDSETSEPLSCRAQGQTGVLTVHSYAKGDGRVTVGEPCTRKKGSAARSFSERELAEVADEYMFSLEENKKSKGRRQPLSKLPRHHPLVLQECVSDDETSEQLTPEEEAEETEAWAKPLSQLWQNRPPNFEAEKEFNETMAQQAPHCAVCMIFQTYHQVEFGGFNQNCGNASDLAPQKQRTKPLIPEMCFTSTGCSTDINLSTPYLEEDGTSILVSCKKCSVRVHASCYGVPPAKASEDWMCSRCSANALEEDCCLCSLRGGALQRANDDRWVHVSCAVAILEARFVNIAERSPVDVSKIPLPCFKLKCIFCKKRRKRTAGCCVQCSHGRCPTAFHVSCAQAAGVMMQPDDWPFVVFITCFRHKIPNLERAKGALQSITAGQKVISKHKNGRFYQCEVVRLTTETFYEVNFDDGSFSDNLYPEDIVSQDCLQFGPPAEGEVVQVRWTDGQVYGAKFVASHPIQMYQVEFEDGSQLVVKRDDVYTLDEELPKRVKSRLSVASDMRFNEIFTEKEVKQEKKRQRVINSRYREDYIEPALYRAIME | + | + |
| 2A-R825H*: KDM4A mutation (protein, UniProt O75164 2-1064, looked up, variant R825H) Lysine-specific demethylase 4A: ASESETLNPSARIMTFYPTMEEFRNFSRYIAYIESQGAHRAGLAKVVPPKEWKPRASYDDIDDLVIPAPIQQLVTGQSGLFTQYNIQKKAMTVREFRKIANSDKYCTPRYSEFEELERKYWKNLTFNPPIYGADVNGTLYEKHVDEWNIGRLRTILDLVEKESGITIEGVNTPYLYFGMWKTSFAWHTEDMDLYSINYLHFGEPKSWYSVPPEHGKRLERLAKGFFPGSAQSCEAFLRHKMTLISPLMLKKYGIPFDKVTQEAGEFMITFPYGYHAGFNHGFNCAESTNFATRRWIEYGKQAVLCSCRKDMVKISMDVFVRKFQPERYKLWKAGKDNTVIDHTLPTPEAAEFLKESELPPRAGNEEECPEEDMEGVEDGEEGDLKTSLAKHRIGTKRHRVCLEIPQEVSQSELFPKEDLSSEQYEMTECPAALAPVRPTHSSVRQVEDGLTFPDYSDSTEVKFEELKNVKLEEEDEEEEQAAAALDLSVNPASVGGRLVFSGSKKKSSSSLGSGSSRDSISSDSETSEPLSCRAQGQTGVLTVHSYAKGDGRVTVGEPCTRKKGSAARSFSERELAEVADEYMFSLEENKKSKGRRQPLSKLPRHHPLVLQECVSDDETSEQLTPEEEAEETEAWAKPLSQLWQNRPPNFEAEKEFNETMAQQAPHCAVCMIFQTYHQVEFGGFNQNCGNASDLAPQKQRTKPLIPEMCFTSTGCSTDINLSTPYLEEDGTSILVSCKKCSVRVHASCYGVPPAKASEDWMCSRCSANALEEDCCLCSLRGGALQRANDDRWVHVSCAVAILEARFVNIAERSPVDVSKIPLPHFKLKCIFCKKRRKRTAGCCVQCSHGRCPTAFHVSCAQAAGVMMQPDDWPFVVFITCFRHKIPNLERAKGALQSITAGQKVISKHKNGRFYQCEVVRLTTETFYEVNFDDGSFSDNLYPEDIVSQDCLQFGPPAEGEVVQVRWTDGQVYGAKFVASHPIQMYQVEFEDGSQLVVKRDDVYTLDEELPKRVKSRLSVASDMRFNEIFTEKEVKQEKKRQRVINSRYREDYIEPALYRAIME | + | + |
| 2A-V1003A: KDM4A mutation (protein) MASESETLNPSARIMTFYPTMEEFRNFSRYIAYIESQGAHRAGLAKVVPPKEWKPRASYDDIDDLVIPAPIQQLVTGQSGLFTQYNIQKKAMTVREFRKIANSDKYCTPRYSEFEELERKYWKNLTFNPPIYGADVNGTLYEKHVDEWNIGRLRTILDLVEKESGITIEGVNTPYLYFGMWKTSFAWHTEDMDLYSINYLHFGEPKSWYSVPPEHGKRLERLAKGFFPGSAQSCEAFLRHKMTLISPLMLKKYGIPFDKVTQEAGEFMITFPYGYHAGFNHGFNCAESTNFATRRWIEYGKQAVLCSCRKDMVKISMDVFVRKFQPERYKLWKAGKDNTVIDHTLPTPEAAEFLKESELPPRAGNEEECPEEDMEGVEDGEEGDLKTSLAKHRIGTKRHRVCLEIPQEVSQSELFPKEDLSSEQYEMTECPAALAPVRPTHSSVRQVEDGLTFPDYSDSTEVKFEELKNVKLEEEDEEEEQAAAALDLSVNPASVGGRLVFSGSKKKSSSSLGSGSSRDSISSDSETSEPLSCRAQGQTGVLTVHSYAKGDGRVTVGEPCTRKKGSAARSFSERELAEVADEYMFSLEENKKSKGRRQPLSKLPRHHPLVLQECVSDDETSEQLTPEEEAEETEAWAKPLSQLWQNRPPNFEAEKEFNETMAQQAPHCAVCMIFQTYHQVEFGGFNQNCGNASDLAPQKQRTKPLIPEMCFTSTGCSTDINLSTPYLEEDGTSILVSCKKCSVRVHASCYGVPPAKASEDWMCSRCSANALEEDCCLCSLRGGALQRANDDRWVHVSCAVAILEARFVNIAERSPVDVSKIPLPRFKLKCIFCKKRRKRTAGCCVQCSHGRCPTAFHVSCAQAAGVMMQPDDWPFVVFITCFRHKIPNLERAKGALQSITAGQKVISKHKNGRFYQCEVVRLTTETFYEVNFDDGSFSDNLYPEDIVSQDCLQFGPPAEGEVVQVRWTDGQVYGAKFVASHPIQMYQVEFEDGSQLVVKRDDAYTLDEELPKRVKSRLSVASDMRFNEIFTEKEVKQEKKRQRVINSRYREDYIEPALYRAIME | + | + |
| 2A-E1032K: KDM4A mutation (protein) MASESETLNPSARIMTFYPTMEEFRNFSRYIAYIESQGAHRAGLAKVVPPKEWKPRASYDDIDDLVIPAPIQQLVTGQSGLFTQYNIQKKAMTVREFRKIANSDKYCTPRYSEFEELERKYWKNLTFNPPIYGADVNGTLYEKHVDEWNIGRLRTILDLVEKESGITIEGVNTPYLYFGMWKTSFAWHTEDMDLYSINYLHFGEPKSWYSVPPEHGKRLERLAKGFFPGSAQSCEAFLRHKMTLISPLMLKKYGIPFDKVTQEAGEFMITFPYGYHAGFNHGFNCAESTNFATRRWIEYGKQAVLCSCRKDMVKISMDVFVRKFQPERYKLWKAGKDNTVIDHTLPTPEAAEFLKESELPPRAGNEEECPEEDMEGVEDGEEGDLKTSLAKHRIGTKRHRVCLEIPQEVSQSELFPKEDLSSEQYEMTECPAALAPVRPTHSSVRQVEDGLTFPDYSDSTEVKFEELKNVKLEEEDEEEEQAAAALDLSVNPASVGGRLVFSGSKKKSSSSLGSGSSRDSISSDSETSEPLSCRAQGQTGVLTVHSYAKGDGRVTVGEPCTRKKGSAARSFSERELAEVADEYMFSLEENKKSKGRRQPLSKLPRHHPLVLQECVSDDETSEQLTPEEEAEETEAWAKPLSQLWQNRPPNFEAEKEFNETMAQQAPHCAVCMIFQTYHQVEFGGFNQNCGNASDLAPQKQRTKPLIPEMCFTSTGCSTDINLSTPYLEEDGTSILVSCKKCSVRVHASCYGVPPAKASEDWMCSRCSANALEEDCCLCSLRGGALQRANDDRWVHVSCAVAILEARFVNIAERSPVDVSKIPLPRFKLKCIFCKKRRKRTAGCCVQCSHGRCPTAFHVSCAQAAGVMMQPDDWPFVVFITCFRHKIPNLERAKGALQSITAGQKVISKHKNGRFYQCEVVRLTTETFYEVNFDDGSFSDNLYPEDIVSQDCLQFGPPAEGEVVQVRWTDGQVYGAKFVASHPIQMYQVEFEDGSQLVVKRDDVYTLDEELPKRVKSRLSVASDMRFNEIFTKKEVKQEKKRQRVINSRYREDYIEPALYRAIME | + | + |
| 2A-D1023Y: KDM4A mutation (protein) MASESETLNPSARIMTFYPTMEEFRNFSRYIAYIESQGAHRAGLAKVVPPKEWKPRASYDDIDDLVIPAPIQQLVTGQSGLFTQYNIQKKAMTVREFRKIANSDKYCTPRYSEFEELERKYWKNLTFNPPIYGADVNGTLYEKHVDEWNIGRLRTILDLVEKESGITIEGVNTPYLYFGMWKTSFAWHTEDMDLYSINYLHFGEPKSWYSVPPEHGKRLERLAKGFFPGSAQSCEAFLRHKMTLISPLMLKKYGIPFDKVTQEAGEFMITFPYGYHAGFNHGFNCAESTNFATRRWIEYGKQAVLCSCRKDMVKISMDVFVRKFQPERYKLWKAGKDNTVIDHTLPTPEAAEFLKESELPPRAGNEEECPEEDMEGVEDGEEGDLKTSLAKHRIGTKRHRVCLEIPQEVSQSELFPKEDLSSEQYEMTECPAALAPVRPTHSSVRQVEDGLTFPDYSDSTEVKFEELKNVKLEEEDEEEEQAAAALDLSVNPASVGGRLVFSGSKKKSSSSLGSGSSRDSISSDSETSEPLSCRAQGQTGVLTVHSYAKGDGRVTVGEPCTRKKGSAARSFSERELAEVADEYMFSLEENKKSKGRRQPLSKLPRHHPLVLQECVSDDETSEQLTPEEEAEETEAWAKPLSQLWQNRPPNFEAEKEFNETMAQQAPHCAVCMIFQTYHQVEFGGFNQNCGNASDLAPQKQRTKPLIPEMCFTSTGCSTDINLSTPYLEEDGTSILVSCKKCSVRVHASCYGVPPAKASEDWMCSRCSANALEEDCCLCSLRGGALQRANDDRWVHVSCAVAILEARFVNIAERSPVDVSKIPLPRFKLKCIFCKKRRKRTAGCCVQCSHGRCPTAFHVSCAQAAGVMMQPDDWPFVVFITCFRHKIPNLERAKGALQSITAGQKVISKHKNGRFYQCEVVRLTTETFYEVNFDDGSFSDNLYPEDIVSQDCLQFGPPAEGEVVQVRWTDGQVYGAKFVASHPIQMYQVEFEDGSQLVVKRDDVYTLDEELPKRVKSRLSVASYMRFNEIFTEKEVKQEKKRQRVINSRYREDYIEPALYRAIME | + | + |
